Earlier results as cited in article PMC7302117.

Target: ELK1 (Homo sapiens) (UniProt P19419)
Chain of UniProt P19419 (P19419 whole entry): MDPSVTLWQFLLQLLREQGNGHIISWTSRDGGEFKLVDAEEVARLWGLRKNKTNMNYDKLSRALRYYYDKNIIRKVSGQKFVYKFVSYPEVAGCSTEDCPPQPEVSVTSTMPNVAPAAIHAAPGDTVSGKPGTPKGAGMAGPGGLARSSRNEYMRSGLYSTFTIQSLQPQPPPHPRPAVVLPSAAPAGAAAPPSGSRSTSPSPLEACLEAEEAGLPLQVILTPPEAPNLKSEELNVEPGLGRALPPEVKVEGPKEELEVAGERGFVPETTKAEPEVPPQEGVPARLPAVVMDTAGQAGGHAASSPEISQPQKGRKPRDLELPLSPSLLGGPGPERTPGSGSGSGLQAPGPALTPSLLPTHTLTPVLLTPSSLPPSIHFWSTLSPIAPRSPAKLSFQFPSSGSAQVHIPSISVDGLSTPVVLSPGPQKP

- Kd: 20 nM
Substance: Androgen receptor A/B domain (from UniProt P10275)
